# T1: EsCas13d, nuclease-dead (Eubacterium siraeum, UniProt B0MS50, R295A;H300A;R849A;H854A)
# T1 sequence: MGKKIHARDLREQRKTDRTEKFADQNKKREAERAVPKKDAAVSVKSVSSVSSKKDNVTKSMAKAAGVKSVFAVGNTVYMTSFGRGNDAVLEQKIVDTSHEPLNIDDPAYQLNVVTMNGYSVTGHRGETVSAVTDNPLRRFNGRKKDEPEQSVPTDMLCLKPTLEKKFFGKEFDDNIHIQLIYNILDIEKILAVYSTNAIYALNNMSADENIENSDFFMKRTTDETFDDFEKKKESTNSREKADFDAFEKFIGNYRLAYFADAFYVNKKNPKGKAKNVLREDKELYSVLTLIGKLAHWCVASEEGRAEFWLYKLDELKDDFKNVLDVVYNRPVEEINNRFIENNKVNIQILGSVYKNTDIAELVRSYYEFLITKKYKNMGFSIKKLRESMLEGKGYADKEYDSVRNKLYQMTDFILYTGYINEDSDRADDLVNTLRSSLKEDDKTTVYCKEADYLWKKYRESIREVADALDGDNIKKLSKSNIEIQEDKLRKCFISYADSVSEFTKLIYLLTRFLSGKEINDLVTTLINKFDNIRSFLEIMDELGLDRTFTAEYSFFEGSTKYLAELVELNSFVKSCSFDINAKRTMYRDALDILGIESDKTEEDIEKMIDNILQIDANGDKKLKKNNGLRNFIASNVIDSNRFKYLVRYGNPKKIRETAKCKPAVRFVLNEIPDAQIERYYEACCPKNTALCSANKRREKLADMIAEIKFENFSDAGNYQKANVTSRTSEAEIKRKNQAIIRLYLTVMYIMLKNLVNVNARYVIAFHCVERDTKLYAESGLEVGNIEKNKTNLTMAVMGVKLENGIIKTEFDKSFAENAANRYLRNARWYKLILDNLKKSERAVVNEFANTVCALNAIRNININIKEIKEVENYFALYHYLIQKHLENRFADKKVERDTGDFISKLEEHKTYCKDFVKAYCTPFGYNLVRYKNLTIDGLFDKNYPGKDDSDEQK
# Target: T1, EsCas13d, nuclease-dead
# Experiment: crRNA (strand 1, pre-loaded); Mg2+; 40 mM Tris-HCl pH 7.5, 150 mM NaCl, 6 mM MgCl2, 1 mM DTT, 0.1% Tween-20, 0.2 mg/ml BSA; 25 C; 10 min per concentration, then washed
# Settings: tags: His6-TwinStrep-SUMO cleaved; N-terminal SNAP kept (SNAP-Surface 488); label: 3' end held by stalled T7 RNA polymerase
row,Binder,Kd [nM]
1,target 1 MT 5'PFS GCA 3'PFS CAA (mixed) RNA 1: CACCCGUGCAAAAAUGCAGGGGUCUAAAACUGAGCGGAUAACCUCUCUAUGG RNA 2: GGGAAUGGAUCCACAUCUACGAAUUCGCACCAUAGAGAGGUUAUCCGCUCACAAAGAUCGGAAGAGCACACGU,~32.5
2,target 1 MT 5'PFS AGG 3'PFS ACU (mixed) RNA 1: CACCCGUGCAAAAAUGCAGGGGUCUAAAACUGAGCGGAUAACCUCUCUAUGG RNA 2: GGGAAUGGAUCCACAUCUACGAAUUCAGGCCAUAGAGAGGUUAUCCGCUCAACUAGAUCGGAAGAGCACACGU,42 ± 12
3,target 1 MT 5'PFS UUA 3'PFS AUU (mixed) RNA 1: CACCCGUGCAAAAAUGCAGGGGUCUAAAACUGAGCGGAUAACCUCUCUAUGG RNA 2: GGGAAUGGAUCCACAUCUACGAAUUCUUACCAUAGAGAGGUUAUCCGCUCAAUUAGAUCGGAAGAGCACACGU,13.2 ± 2.1
4,target 1 MT 5'PFS CAG 3'PFS ACC (mixed) RNA 1: CACCCGUGCAAAAAUGCAGGGGUCUAAAACUGAGCGGAUAACCUCUCUAUGG RNA 2: GGGAAUGGAUCCACAUCUACGAAUUCCAGCCAUAGAGAGGUUAUCCGCUCAACCAGAUCGGAAGAGCACACGU,24 ± 11.5
5,target 1 MT 5'PFS AGG 3'PFS ACC (mixed) RNA 1: CACCCGUGCAAAAAUGCAGGGGUCUAAAACUGAGCGGAUAACCUCUCUAUGG RNA 2: GGGAAUGGAUCCACAUCUACGAAUUCAGGCCAUAGAGAGGUUAUCCGCUCAACCAGAUCGGAAGAGCACACGU,46.5 ± 22
6,target 1 MT 5'PFS UCA 3'PFS CCG (mixed) RNA 1: CACCCGUGCAAAAAUGCAGGGGUCUAAAACUGAGCGGAUAACCUCUCUAUGG RNA 2: GGGAAUGGAUCCACAUCUACGAAUUCUCACCAUAGAGAGGUUAUCCGCUCACCGAGAUCGGAAGAGCACACGU,~25
7,target 1 MT 5'PFS CAA 3'PFS CUG (mixed) RNA 1: CACCCGUGCAAAAAUGCAGGGGUCUAAAACUGAGCGGAUAACCUCUCUAUGG RNA 2: GGGAAUGGAUCCACAUCUACGAAUUCCAACCAUAGAGAGGUUAUCCGCUCACUGAGAUCGGAAGAGCACACGU,14.5 ± 5
8,target 1 MT 5'PFS CAG 3'PFS ACG (mixed) RNA 1: CACCCGUGCAAAAAUGCAGGGGUCUAAAACUGAGCGGAUAACCUCUCUAUGG RNA 2: GGGAAUGGAUCCACAUCUACGAAUUCCAGCCAUAGAGAGGUUAUCCGCUCAACGAGAUCGGAAGAGCACACGU,19.5 ± 5.15
9,target 1 MT 5'PFS GUA 3'PFS UCG (mixed) RNA 1: CACCCGUGCAAAAAUGCAGGGGUCUAAAACUGAGCGGAUAACCUCUCUAUGG RNA 2: GGGAAUGGAUCCACAUCUACGAAUUCGUACCAUAGAGAGGUUAUCCGCUCAUCGAGAUCGGAAGAGCACACGU,8.56 ± 0.55
10,target 1 MT 5'PFS ACA 3'PFS AUG (mixed) RNA 1: CACCCGUGCAAAAAUGCAGGGGUCUAAAACUGAGCGGAUAACCUCUCUAUGG RNA 2: GGGAAUGGAUCCACAUCUACGAAUUCACACCAUAGAGAGGUUAUCCGCUCAAUGAGAUCGGAAGAGCACACGU,39.5 ± 14.5
11,target 1 MT 5'PFS GUA 3'PFS UCA (mixed) RNA 1: CACCCGUGCAAAAAUGCAGGGGUCUAAAACUGAGCGGAUAACCUCUCUAUGG RNA 2: GGGAAUGGAUCCACAUCUACGAAUUCGUACCAUAGAGAGGUUAUCCGCUCAUCAAGAUCGGAAGAGCACACGU,12.3 ± 0.95
12,target 1 MT 5'PFS CAA 3'PFS CUC (mixed) RNA 1: CACCCGUGCAAAAAUGCAGGGGUCUAAAACUGAGCGGAUAACCUCUCUAUGG RNA 2: GGGAAUGGAUCCACAUCUACGAAUUCCAACCAUAGAGAGGUUAUCCGCUCACUCAGAUCGGAAGAGCACACGU,~25
13,target 1 MT 5'PFS UCA 3'PFS CCC (mixed) RNA 1: CACCCGUGCAAAAAUGCAGGGGUCUAAAACUGAGCGGAUAACCUCUCUAUGG RNA 2: GGGAAUGGAUCCACAUCUACGAAUUCUCACCAUAGAGAGGUUAUCCGCUCACCCAGAUCGGAAGAGCACACGU,~69
14,"target 1 C7A,G12A (mixed) RNA 1: CACCCGUGCAAAAAUGCAGGGGUCUAAAACUGAGCGGAUAACCUCUCUAUGG RNA 2: GGGAAUGGAUCCACAUCUACGAAUUCGUACCAUAGAGAGAUUAUACGCUCACCGAGAUCGGAAGAGCACACGU",9.6 ± 0.8
15,target 1 MT 5'PFS ACA 3'PFS AUC (mixed) RNA 1: CACCCGUGCAAAAAUGCAGGGGUCUAAAACUGAGCGGAUAACCUCUCUAUGG RNA 2: GGGAAUGGAUCCACAUCUACGAAUUCACACCAUAGAGAGGUUAUCCGCUCAAUCAGAUCGGAAGAGCACACGU,56 ± 25.5
16,"target 1 insA 3' of 10,insG 3' of 3 (mixed) RNA 1: CACCCGUGCAAAAAUGCAGGGGUCUAAAACUGAGCGGAUAACCUCUCUAUGG RNA 2: GGGAAUGGAUCCACAUCUACGAAUUCGUACCAUAGAGAGGUUAAUCCGCUGCACCGAGAUCGGAAGAGCACACGU",7.18 ± 0.25
17,target 1 MT 5'PFS GUA 3'PFS UCC (mixed) RNA 1: CACCCGUGCAAAAAUGCAGGGGUCUAAAACUGAGCGGAUAACCUCUCUAUGG RNA 2: GGGAAUGGAUCCACAUCUACGAAUUCGUACCAUAGAGAGGUUAUCCGCUCAUCCAGAUCGGAAGAGCACACGU,7.33 ± 0.61
18,target 1 MT 5'PFS GUG 3'PFS AGA (mixed) RNA 1: CACCCGUGCAAAAAUGCAGGGGUCUAAAACUGAGCGGAUAACCUCUCUAUGG RNA 2: GGGAAUGGAUCCACAUCUACGAAUUCGUGCCAUAGAGAGGUUAUCCGCUCAAGAAGAUCGGAAGAGCACACGU,15.9 ± 1
19,target 1 MT 5'PFS CUA 3'PFS AGU (mixed) RNA 1: CACCCGUGCAAAAAUGCAGGGGUCUAAAACUGAGCGGAUAACCUCUCUAUGG RNA 2: GGGAAUGGAUCCACAUCUACGAAUUCCUACCAUAGAGAGGUUAUCCGCUCAAGUAGAUCGGAAGAGCACACGU,12.2 ± 3.65
20,target 1 MT 5'PFS CUA 3'PFS AGG (mixed) RNA 1: CACCCGUGCAAAAAUGCAGGGGUCUAAAACUGAGCGGAUAACCUCUCUAUGG RNA 2: GGGAAUGGAUCCACAUCUACGAAUUCCUACCAUAGAGAGGUUAUCCGCUCAAGGAGAUCGGAAGAGCACACGU,41 ± 19
21,target 1 MT 5'PFS AGG 3'PFS ACG (mixed) RNA 1: CACCCGUGCAAAAAUGCAGGGGUCUAAAACUGAGCGGAUAACCUCUCUAUGG RNA 2: GGGAAUGGAUCCACAUCUACGAAUUCAGGCCAUAGAGAGGUUAUCCGCUCAACGAGAUCGGAAGAGCACACGU,41 ± 10
22,target 1 MT 5'PFS GUA 3'PFS UCU (mixed) RNA 1: CACCCGUGCAAAAAUGCAGGGGUCUAAAACUGAGCGGAUAACCUCUCUAUGG RNA 2: GGGAAUGGAUCCACAUCUACGAAUUCGUACCAUAGAGAGGUUAUCCGCUCAUCUAGAUCGGAAGAGCACACGU,8.3 ± 0.95
23,target 1 MT 5'PFS CAG 3'PFS ACA (mixed) RNA 1: CACCCGUGCAAAAAUGCAGGGGUCUAAAACUGAGCGGAUAACCUCUCUAUGG RNA 2: GGGAAUGGAUCCACAUCUACGAAUUCCAGCCAUAGAGAGGUUAUCCGCUCAACAAGAUCGGAAGAGCACACGU,31 ± 15.5
24,target 1 MT 5'PFS ACA 3'PFS AUA (mixed) RNA 1: CACCCGUGCAAAAAUGCAGGGGUCUAAAACUGAGCGGAUAACCUCUCUAUGG RNA 2: GGGAAUGGAUCCACAUCUACGAAUUCACACCAUAGAGAGGUUAUCCGCUCAAUAAGAUCGGAAGAGCACACGU,12.2 ± 3.9

# From article PMC10786891, “Massively parallel profiling of RNA-targeting CRISPR-Cas13d”
